In article PMC11082181:

What was measured:
[1] = target: ZGGS15, anti-LAG-3/TIGIT bispecific IgG4 antibody (human); test: BLI; ZGGS15 or BM (4 µg/mL) loaded to protein A probes; FcγRI 30 to 1 nM in solution; 150 s association, 200 s dissociation; BLI kinetics assay buffer; 25 °C, 1000 rpm
[2] = target: Relatlimab analog, anti-LAG-3 benchmark (human); test: as above
Sequence of Relatlimab analog, anti-LAG-3 benchmark (human) (heavy, as listed by the source, chain 1 of 2): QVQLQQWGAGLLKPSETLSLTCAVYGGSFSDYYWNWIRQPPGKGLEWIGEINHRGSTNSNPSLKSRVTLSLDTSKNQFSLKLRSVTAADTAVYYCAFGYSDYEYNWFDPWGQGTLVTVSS
Sequence of Relatlimab analog, anti-LAG-3 benchmark (human) (light, as listed by the source, chain 2 of 2): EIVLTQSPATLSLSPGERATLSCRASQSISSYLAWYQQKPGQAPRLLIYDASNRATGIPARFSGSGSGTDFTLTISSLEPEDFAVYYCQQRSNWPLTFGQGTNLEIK

human Fc-gamma receptor I (FcγRI) (from UniProt P12314 16-374)
Kd [1]: 2.6 nM
Kd [2]: 3 nM
